Test results reported in US20260240959A1, “METHODS FOR IN VIVO EDITING OF KLKB1” (INTELLIA THERAPEUTICS, INC., priority 2022, published 2026).
In the oligonucleotide strings, read from the 5' end, every base follows the letter of its sugar. An asterisk marks phosphorothioate; unmarked linkages are phosphodiester. Other units and linkages are bracketed, terminal groups are in braces. A string of capitals states the bases alone. m = 2'-O-methyl; r = 2'-OH (RNA)

System: plasma kallikrein
Assay: Plasma kallikrein activity in cynomolgus monkeys
Format: in vivo, cynomolgus monkey
Conditions: for Kallikrein Activity (% of basal activity), Mean: n=3
Protocol: Cynomolgus monkeys were treated in cohorts of n=3. This study was conducted with LNP formulations according to Example 1. […]. Animals were dosed at 1.5, 3, or 6 mg per kg doses based on total RNA cargo. Indel formation (percent editing) was measured by NGS. Total kallikrein activity and plasma kallikrein protein level were measured as described above. […]

B1: G013901: cynomolgus specific KLKB1 guide RNA (SEQ ID NO: 409); dosed as LNP formulation with Cas9 mRNA (nucleic acid)
guide: mG*mG*mA*rUrUrArCrArUrArUrGrGrGrArCrArCrArArGrUrUrUrUrArGrAmGmCmUmAmGmAmAmAmUmAmGmCrArArGrUrUrArArArArUrArArGrGrCrUrArGrUrCrCrGrUrUrArUrCrAmAmCmUmUmGmAmAmAmAmAmGmUmGmGmCmAmCmCmGmAmGmUmCmGmGmUmGmCmU*mU*mU*mU
durability of response in NHPs (cynomolgus monkey, in vivo): durable through one year
Kallikrein Activity (% of basal activity), Mean (1.5 mpk, Day 7): 67.8 % of basal activity
Kallikrein Activity (% of basal activity), Mean (1.5 mpk, Day 14): 31.1 % of basal activity
Kallikrein Activity (% of basal activity), Mean (1.5 mpk, Day 28): 26.8 % of basal activity
Kallikrein Activity (% of basal activity), Mean (1.5 mpk, Day 42): 19.8 % of basal activity
Kallikrein Activity (% of basal activity), Mean (1.5 mpk, Day 56): 8.8 % of basal activity
Kallikrein Activity (% of basal activity), Mean (1.5 mpk, Day 70): 6 % of basal activity
Kallikrein Activity (% of basal activity), Mean (1.5 mpk, Day 84): 10.6 % of basal activity
Kallikrein Activity (% of basal activity), Mean (1.5 mpk, Day 105): 23.3 % of basal activity
Kallikrein Activity (% of basal activity), Mean (1.5 mpk, Day 119): 12.2 % of basal activity
Kallikrein Activity (% of basal activity), Mean (1.5 mpk, Day 147): 11.9 % of basal activity
Kallikrein Activity (% of basal activity), Mean (1.5 mpk, Day 161): 21 % of basal activity
Kallikrein Activity (% of basal activity), Mean (1.5 mpk, Day 180): 19.2 % of basal activity
Kallikrein Activity (% of basal activity), Mean (1.5 mpk, Day 238): 16.6 % of basal activity
Kallikrein Activity (% of basal activity), Mean (1.5 mpk, Day 252): 19.1 % of basal activity
Kallikrein Activity (% of basal activity), Mean (1.5 mpk, Day 266): 13.9 % of basal activity
Kallikrein Activity (% of basal activity), Mean (1.5 mpk, Day 280): 17.5 % of basal activity
Kallikrein Activity (% of basal activity), Mean (1.5 mpk, Day 294): 17 % of basal activity
Kallikrein Activity (% of basal activity), Mean (1.5 mpk, Day 308): 18.2 % of basal activity
Kallikrein Activity (% of basal activity), Mean (1.5 mpk, Day 326): 13.3 % of basal activity
Kallikrein Activity (% of basal activity), Mean (1.5 mpk, Day 333): 15.9 % of basal activity
Kallikrein Activity (% of basal activity), Mean (1.5 mpk, Day 347): 16.9 % of basal activity
Kallikrein Activity (% of basal activity), Mean (1.5 mpk, Day 365): 24.1 % of basal activity
Kallikrein Activity (% of basal activity), Mean (3 mpk, Day 7): 42.8 % of basal activity
Kallikrein Activity (% of basal activity), Mean (3 mpk, Day 14): 15.9 % of basal activity
Kallikrein Activity (% of basal activity), Mean (3 mpk, Day 28): 10.6 % of basal activity
Kallikrein Activity (% of basal activity), Mean (3 mpk, Day 42): 8.6 % of basal activity
Kallikrein Activity (% of basal activity), Mean (3 mpk, Day 56): 3.4 % of basal activity
Kallikrein Activity (% of basal activity), Mean (3 mpk, Day 70): 3 % of basal activity
Kallikrein Activity (% of basal activity), Mean (3 mpk, Day 84): 4.2 % of basal activity
Kallikrein Activity (% of basal activity), Mean (3 mpk, Day 105): 6 % of basal activity
Kallikrein Activity (% of basal activity), Mean (3 mpk, Day 119): 3.4 % of basal activity
Kallikrein Activity (% of basal activity), Mean (3 mpk, Day 147): 4.5 % of basal activity
Kallikrein Activity (% of basal activity), Mean (3 mpk, Day 161): 6 % of basal activity
Kallikrein Activity (% of basal activity), Mean (3 mpk, Day 180): 4.7 % of basal activity
Kallikrein Activity (% of basal activity), Mean (3 mpk, Day 238): 4.7 % of basal activity
Kallikrein Activity (% of basal activity), Mean (3 mpk, Day 252): 8.2 % of basal activity
Kallikrein Activity (% of basal activity), Mean (3 mpk, Day 266): 8.9 % of basal activity
Kallikrein Activity (% of basal activity), Mean (3 mpk, Day 280): 6.8 % of basal activity
Kallikrein Activity (% of basal activity), Mean (3 mpk, Day 294): 7.9 % of basal activity
Kallikrein Activity (% of basal activity), Mean (3 mpk, Day 308): 7.4 % of basal activity
Kallikrein Activity (% of basal activity), Mean (3 mpk, Day 326): 5.5 % of basal activity
Kallikrein Activity (% of basal activity), Mean (3 mpk, Day 333): 6.8 % of basal activity
Kallikrein Activity (% of basal activity), Mean (3 mpk, Day 347): 4.1 % of basal activity
Kallikrein Activity (% of basal activity), Mean (3 mpk, Day 365): 10 % of basal activity
Kallikrein Activity (% of basal activity), Mean (6 mpk, Day 7): 18.2 % of basal activity
Kallikrein Activity (% of basal activity), Mean (6 mpk, Day 14): 5.3 % of basal activity
Kallikrein Activity (% of basal activity), Mean (6 mpk, Day 28): 3.9 % of basal activity
Kallikrein Activity (% of basal activity), Mean (6 mpk, Day 42): 3.6 % of basal activity
Kallikrein Activity (% of basal activity), Mean (6 mpk, Day 56): 4.2 % of basal activity
Kallikrein Activity (% of basal activity), Mean (6 mpk, Day 70): 3.9 % of basal activity
Kallikrein Activity (% of basal activity), Mean (6 mpk, Day 84): 4.7 % of basal activity
Kallikrein Activity (% of basal activity), Mean (6 mpk, Day 105): 4.7 % of basal activity
Kallikrein Activity (% of basal activity), Mean (6 mpk, Day 119): 3 % of basal activity
Kallikrein Activity (% of basal activity), Mean (6 mpk, Day 147): 3 % of basal activity
Kallikrein Activity (% of basal activity), Mean (6 mpk, Day 161): 5.6 % of basal activity
Kallikrein Activity (% of basal activity), Mean (6 mpk, Day 180): 5 % of basal activity
Kallikrein Activity (% of basal activity), Mean (6 mpk, Day 238): 3.2 % of basal activity
Kallikrein Activity (% of basal activity), Mean (6 mpk, Day 252): 3.1 % of basal activity
Kallikrein Activity (% of basal activity), Mean (6 mpk, Day 266): 2.7 % of basal activity
Kallikrein Activity (% of basal activity), Mean (6 mpk, Day 280): 3 % of basal activity
Kallikrein Activity (% of basal activity), Mean (6 mpk, Day 294): 2.9 % of basal activity
Kallikrein Activity (% of basal activity), Mean (6 mpk, Day 308): 3 % of basal activity
Kallikrein Activity (% of basal activity), Mean (6 mpk, Day 326): 3.5 % of basal activity
Kallikrein Activity (% of basal activity), Mean (6 mpk, Day 333): 3.3 % of basal activity
